Results taken from patent publication US20260209364A1 (NB HEALTH LABORATORY, published 2026).
Substitutions are numbered along the chain they refer to. Values belong to the binder of their own block, whether it stands above or below them.

Experiments:
human CCR7 [1] = target: T1, human CCR7 (human, UniProt P32248 25-378); test: cell-based or functional assay
T1 sequence: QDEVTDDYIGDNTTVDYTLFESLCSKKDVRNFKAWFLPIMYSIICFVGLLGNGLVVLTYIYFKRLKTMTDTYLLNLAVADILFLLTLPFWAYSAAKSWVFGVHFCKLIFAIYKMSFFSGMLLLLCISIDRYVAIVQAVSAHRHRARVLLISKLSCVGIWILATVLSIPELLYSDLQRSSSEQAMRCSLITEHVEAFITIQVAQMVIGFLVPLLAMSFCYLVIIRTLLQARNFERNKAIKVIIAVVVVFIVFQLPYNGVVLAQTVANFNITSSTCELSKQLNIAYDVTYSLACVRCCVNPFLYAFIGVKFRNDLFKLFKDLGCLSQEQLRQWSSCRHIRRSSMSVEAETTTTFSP

human CCR7 [2] = target: T1, human CCR7; test: cell-based or functional assay; remark: listed apart in the source

B2: humanized anti-CCR7 antibody NB007-02 (antibody, human IgG1, kappa, V domains shown)
VH: EVQLVQSGPEVVKPGASVKLSCKASGYSFTGYYMHWVKQAPGQGLEWIGRVNPNQGGTSYNKKFKVRVTLTVDRSISTAYMEFSRLRSDDTVVYYCARSESNNFYAMDYWGQGTSVTVSS
VL: DIVMTQSPLSLSVTPGQPASISCRSSQSLVHSNGNTYLCWYLQKPGQSPQLLIYRVSNRFSGVPDRFSGSGSGTDFTLKISRVEAEDVGVYYCFQGSHVPHTFGQGTKVEIKR
- IC50 (nM), inhibition of intracellular Ca2+ signaling in human CCR7 gene-transfected cells stimulated with 5x10^-8 M CCL21 (human CCR7 [2]): 16.4 nM

B4: humanized anti-CCR7 antibody NB007-03 (antibody, human IgG1, kappa, V domains shown)
VH: B2 VH with Q55N
VL: B2 VL with S7T, P15L, Q105S
- IC50 (nM), inhibition of intracellular Ca2+ signaling in human CCR7 gene-transfected cells stimulated with 5x10^-8 M CCL21 (human CCR7 [2]): 12.5 nM

Second part, the binder after the results:

- IC50, inhibition of CCL19-dependent cell migration of Granta-519 cells (human CCR7 [1]): 25.5 nM
- IC50, inhibition of CCL19-induced intracellular Ca2+ signaling in hCCR7 gene-transfected cells (human CCR7 [1]): 21.4 nM
- IC50, inhibition of CCL21-induced intracellular Ca2+ signaling in hCCR7 gene-transfected cells (human CCR7 [1]): 17.8 nM
- half maximal inhibitory concentration (IC50), CCL21-induced intracellular Ca2+ signaling in MJ cells (human CCR7 [1]): 14.8 nM
- IC50 (nM), inhibition of intracellular Ca2+ signaling in human CCR7 gene-transfected cells stimulated with 5x10^-8 M CCL21 (human CCR7 [2]): 18.2 nM
B1: humanized anti-CCR7 antibody NB007-01 (antibody, human IgG1, kappa, V domains shown)
VH: B2 VH with L70I
VL: B2 VL with R59K

- IC50 (nM), inhibition of intracellular Ca2+ signaling in human CCR7 gene-transfected cells stimulated with 5x10^-8 M CCL21 (human CCR7 [2]): 16.2 nM
B3: chimeric anti-CCR7 antibody VH0/VL0 (antibody, human IgG1, kappa, V domains shown)
VH: EVQLQQSGPDLVKPGASVKISCKASGYSFTGYYMHWVKQSHGKSLEWIGRVNPNNGGTSYNKKFKVKAILTVDRSSSTAYMEFRSLTLEDSAVYYCARSESNNFYAMDYWGQGKSVTVSS
VL: DILMTQTPLSLPVSLGDQVSISCRSSQSLVHSNGNTYLCWYLQKPGQSPKLLIYRVSNRFSGVPDRFSGSGSGTDFTLKISRVEAEDLGVYFCFQGSHVPHTFGSGTKLEIKR
